The supplement of paper PMC10065799, “High-throughput profiling of sequence recognition by tyrosine kinases and SH2 domains using bacterial peptide display” (eLife, 2023)

Experiments:
[1] = target: SHP2-C SH2; experiment: SH2 binding enrichment of the phosphorylated peptide, bacterial display (enrichment ratio); higher = better substrate or ligand; peptides without Tyr show the background
[2] = target: Grb2 SH2 (UniProt P62993); experiment: as above
[3] = target: c-Src SH2; experiment: as above
[4] = target: Hck (UniProt P08631); experiment: phosphorylation enrichment, bacterial display (enrichment ratio); higher = better substrate or ligand; peptides without Tyr show the background
[5] = target: FGFR1 (UniProt P11362); experiment: as above
[6] = test system: c-Src; experiment: as above
[7] = target: EPHB1 (UniProt P54762); experiment: as above
[8] = test system: c-Abl (mouse); experiment: as above
[9] = target: Jak2 (UniProt O60674); experiment: as above
[10] = test system: AncSZ; experiment: as above
[11] = target: MERTK (UniProt Q12866); experiment: as above
[12] = target: FGFR3 (UniProt P22607); experiment: as above
[13] = target: EPHB2 (UniProt P29323); experiment: as above
[14] = target: Fyn (UniProt P06241); experiment: as above
[15] = target: Fes (UniProt P07332); experiment: as above
[16] = test system: Fer (mouse); experiment: as above
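Throughout, for SH2 binding enrichment of the phosphorylated peptide, bacterial display: peptide library displayed on the E. coli surface as eCPX fusions, selected cells deep-sequenced, score is each peptide's frequency after selection divided by its frequency in the input.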
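Throughout, for phosphorylation enrichment, bacterial display: 11-residue human phosphosite peptides and single-mutation variants displayed on the E. coli surface, counted by deep sequencing, each peptide's frequency after selection divided by its frequency in the unselected input library; frequency after pTyr selection over input frequency; kinase dosed for 20-30% of maximal phosphorylation in three min.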

Chain of FGFR1 (P11362 whole entry, looked up): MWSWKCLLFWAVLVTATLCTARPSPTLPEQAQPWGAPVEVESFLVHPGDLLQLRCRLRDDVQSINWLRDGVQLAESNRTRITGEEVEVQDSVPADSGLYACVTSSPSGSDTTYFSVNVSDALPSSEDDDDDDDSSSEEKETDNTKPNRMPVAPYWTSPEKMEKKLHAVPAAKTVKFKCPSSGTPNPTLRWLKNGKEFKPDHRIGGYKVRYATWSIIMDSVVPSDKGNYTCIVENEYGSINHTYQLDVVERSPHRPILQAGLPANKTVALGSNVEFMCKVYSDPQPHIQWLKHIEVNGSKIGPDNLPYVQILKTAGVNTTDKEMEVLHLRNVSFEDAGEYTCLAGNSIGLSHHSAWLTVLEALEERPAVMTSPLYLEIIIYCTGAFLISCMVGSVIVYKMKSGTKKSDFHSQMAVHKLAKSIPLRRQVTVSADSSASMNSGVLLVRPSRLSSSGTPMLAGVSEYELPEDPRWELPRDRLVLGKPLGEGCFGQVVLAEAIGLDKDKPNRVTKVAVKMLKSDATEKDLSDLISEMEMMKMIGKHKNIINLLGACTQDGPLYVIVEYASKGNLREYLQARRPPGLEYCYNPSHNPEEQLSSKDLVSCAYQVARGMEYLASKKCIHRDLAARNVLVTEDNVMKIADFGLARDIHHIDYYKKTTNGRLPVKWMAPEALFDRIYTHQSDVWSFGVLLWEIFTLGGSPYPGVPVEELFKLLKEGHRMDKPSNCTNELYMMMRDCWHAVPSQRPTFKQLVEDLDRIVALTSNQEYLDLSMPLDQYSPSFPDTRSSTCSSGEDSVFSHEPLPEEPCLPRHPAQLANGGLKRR
Chain of Fyn (P06241 whole entry, looked up): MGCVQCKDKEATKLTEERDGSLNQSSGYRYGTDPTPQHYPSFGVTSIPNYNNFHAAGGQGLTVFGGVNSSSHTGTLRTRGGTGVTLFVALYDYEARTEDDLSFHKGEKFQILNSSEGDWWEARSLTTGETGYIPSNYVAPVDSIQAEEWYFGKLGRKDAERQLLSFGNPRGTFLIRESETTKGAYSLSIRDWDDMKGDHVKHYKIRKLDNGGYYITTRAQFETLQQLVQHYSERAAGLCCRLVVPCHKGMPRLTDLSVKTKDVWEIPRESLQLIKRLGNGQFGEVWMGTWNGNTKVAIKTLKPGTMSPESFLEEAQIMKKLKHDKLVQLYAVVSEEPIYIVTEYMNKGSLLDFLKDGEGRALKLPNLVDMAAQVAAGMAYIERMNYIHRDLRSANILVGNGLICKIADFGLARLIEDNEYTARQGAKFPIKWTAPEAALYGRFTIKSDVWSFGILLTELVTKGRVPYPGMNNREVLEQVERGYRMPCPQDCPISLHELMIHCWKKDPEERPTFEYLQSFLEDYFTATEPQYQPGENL
Chain of Jak2 (O60674 whole entry, looked up): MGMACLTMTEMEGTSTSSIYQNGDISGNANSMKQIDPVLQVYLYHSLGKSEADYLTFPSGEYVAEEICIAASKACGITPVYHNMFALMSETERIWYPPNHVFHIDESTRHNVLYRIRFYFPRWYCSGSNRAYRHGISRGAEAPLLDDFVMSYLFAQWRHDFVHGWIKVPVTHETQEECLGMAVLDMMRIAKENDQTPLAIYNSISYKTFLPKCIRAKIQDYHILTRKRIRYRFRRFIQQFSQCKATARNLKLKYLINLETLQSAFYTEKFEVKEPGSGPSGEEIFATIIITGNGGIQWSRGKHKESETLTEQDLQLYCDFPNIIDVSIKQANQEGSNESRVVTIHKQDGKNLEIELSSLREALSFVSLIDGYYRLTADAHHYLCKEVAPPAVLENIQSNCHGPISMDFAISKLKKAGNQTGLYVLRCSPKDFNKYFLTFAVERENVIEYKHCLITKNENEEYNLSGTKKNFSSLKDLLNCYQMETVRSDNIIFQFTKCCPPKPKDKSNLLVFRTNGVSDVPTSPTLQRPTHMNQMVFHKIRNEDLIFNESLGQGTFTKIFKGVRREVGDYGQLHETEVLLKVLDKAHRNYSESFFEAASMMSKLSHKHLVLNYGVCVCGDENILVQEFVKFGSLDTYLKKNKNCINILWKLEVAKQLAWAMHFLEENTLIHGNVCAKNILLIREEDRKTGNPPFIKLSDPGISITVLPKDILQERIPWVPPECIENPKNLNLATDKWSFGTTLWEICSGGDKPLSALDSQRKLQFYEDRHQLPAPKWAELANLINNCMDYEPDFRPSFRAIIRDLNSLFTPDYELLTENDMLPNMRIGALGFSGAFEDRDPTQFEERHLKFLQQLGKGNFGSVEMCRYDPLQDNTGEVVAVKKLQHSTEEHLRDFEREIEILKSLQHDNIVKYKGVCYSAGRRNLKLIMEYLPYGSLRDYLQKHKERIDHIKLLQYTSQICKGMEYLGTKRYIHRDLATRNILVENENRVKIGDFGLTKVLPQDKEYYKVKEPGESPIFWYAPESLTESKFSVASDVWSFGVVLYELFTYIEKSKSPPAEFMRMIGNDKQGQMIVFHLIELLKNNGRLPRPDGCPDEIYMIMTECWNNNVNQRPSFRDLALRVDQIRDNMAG
Chain of Fes (P07332 whole entry, looked up): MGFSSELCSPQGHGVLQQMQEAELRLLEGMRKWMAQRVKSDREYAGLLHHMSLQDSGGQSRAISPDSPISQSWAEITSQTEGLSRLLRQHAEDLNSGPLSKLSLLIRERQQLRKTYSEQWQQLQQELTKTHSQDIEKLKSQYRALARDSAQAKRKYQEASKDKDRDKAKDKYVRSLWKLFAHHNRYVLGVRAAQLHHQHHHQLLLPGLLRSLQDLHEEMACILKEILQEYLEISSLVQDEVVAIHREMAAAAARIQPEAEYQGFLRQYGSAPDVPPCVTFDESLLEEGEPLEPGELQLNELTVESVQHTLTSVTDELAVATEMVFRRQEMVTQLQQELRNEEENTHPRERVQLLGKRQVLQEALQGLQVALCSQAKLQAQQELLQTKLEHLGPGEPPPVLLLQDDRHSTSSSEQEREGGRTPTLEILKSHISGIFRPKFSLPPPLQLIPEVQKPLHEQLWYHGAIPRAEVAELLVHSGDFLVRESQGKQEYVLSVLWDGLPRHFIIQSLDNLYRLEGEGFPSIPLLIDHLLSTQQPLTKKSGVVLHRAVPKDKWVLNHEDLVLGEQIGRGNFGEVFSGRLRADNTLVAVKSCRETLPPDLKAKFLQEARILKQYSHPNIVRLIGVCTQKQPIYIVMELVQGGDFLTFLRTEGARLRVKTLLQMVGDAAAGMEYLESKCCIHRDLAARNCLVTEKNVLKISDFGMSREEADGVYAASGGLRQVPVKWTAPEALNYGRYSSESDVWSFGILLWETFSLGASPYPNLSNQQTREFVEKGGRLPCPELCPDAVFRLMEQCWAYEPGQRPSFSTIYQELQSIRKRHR
Chain of EPHB2 (P29323 whole entry, looked up): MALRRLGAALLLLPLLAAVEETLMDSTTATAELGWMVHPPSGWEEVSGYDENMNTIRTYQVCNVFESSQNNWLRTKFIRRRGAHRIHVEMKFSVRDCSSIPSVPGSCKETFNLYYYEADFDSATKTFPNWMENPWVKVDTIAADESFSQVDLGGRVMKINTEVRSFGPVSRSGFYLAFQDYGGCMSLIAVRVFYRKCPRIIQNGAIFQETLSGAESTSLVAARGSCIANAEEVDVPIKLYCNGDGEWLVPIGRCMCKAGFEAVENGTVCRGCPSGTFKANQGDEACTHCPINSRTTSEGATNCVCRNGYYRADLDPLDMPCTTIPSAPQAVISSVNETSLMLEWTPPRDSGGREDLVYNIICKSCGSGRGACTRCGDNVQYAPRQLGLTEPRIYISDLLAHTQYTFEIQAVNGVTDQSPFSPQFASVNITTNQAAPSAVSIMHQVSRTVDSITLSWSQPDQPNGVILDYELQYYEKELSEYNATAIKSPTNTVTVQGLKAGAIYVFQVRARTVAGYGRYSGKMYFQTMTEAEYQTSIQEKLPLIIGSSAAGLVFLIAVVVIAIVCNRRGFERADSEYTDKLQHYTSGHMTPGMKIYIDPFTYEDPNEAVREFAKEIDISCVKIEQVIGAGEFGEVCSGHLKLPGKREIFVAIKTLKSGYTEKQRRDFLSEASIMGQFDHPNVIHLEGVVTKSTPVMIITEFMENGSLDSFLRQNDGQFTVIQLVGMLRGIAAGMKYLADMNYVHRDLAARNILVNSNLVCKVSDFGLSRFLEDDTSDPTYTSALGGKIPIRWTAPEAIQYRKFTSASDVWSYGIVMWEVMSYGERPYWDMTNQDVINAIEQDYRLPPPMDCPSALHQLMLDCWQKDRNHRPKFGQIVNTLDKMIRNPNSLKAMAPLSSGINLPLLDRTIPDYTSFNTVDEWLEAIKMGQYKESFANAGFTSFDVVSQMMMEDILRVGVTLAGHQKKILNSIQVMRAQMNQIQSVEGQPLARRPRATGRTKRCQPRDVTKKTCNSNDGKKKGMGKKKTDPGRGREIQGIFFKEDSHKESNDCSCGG
Chain of Hck (P08631 whole entry, looked up): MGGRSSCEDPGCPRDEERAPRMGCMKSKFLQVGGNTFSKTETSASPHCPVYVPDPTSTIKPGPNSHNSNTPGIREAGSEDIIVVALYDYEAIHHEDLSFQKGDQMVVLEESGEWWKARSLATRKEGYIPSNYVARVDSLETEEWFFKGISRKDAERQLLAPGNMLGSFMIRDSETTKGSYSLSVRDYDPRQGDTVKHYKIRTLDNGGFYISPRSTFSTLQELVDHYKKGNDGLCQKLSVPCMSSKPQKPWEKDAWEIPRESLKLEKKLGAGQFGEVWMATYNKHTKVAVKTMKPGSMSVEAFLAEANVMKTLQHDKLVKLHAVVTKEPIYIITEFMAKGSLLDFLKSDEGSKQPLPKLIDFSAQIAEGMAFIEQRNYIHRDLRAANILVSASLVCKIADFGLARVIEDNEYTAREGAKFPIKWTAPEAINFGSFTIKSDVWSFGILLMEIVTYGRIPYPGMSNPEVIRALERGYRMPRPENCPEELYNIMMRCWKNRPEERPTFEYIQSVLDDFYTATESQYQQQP

Sequence | SH2 binding enrichment [1] | SH2 binding enrichment [2] | SH2 binding enrichment [3] | phosphorylation enrichment [4] | phosphorylation enrichment [5] | phosphorylation enrichment [6] | phosphorylation enrichment [7] | phosphorylation enrichment [8] | phosphorylation enrichment [9] | phosphorylation enrichment [10] | phosphorylation enrichment [11] | phosphorylation enrichment [12] | phosphorylation enrichment [13] | phosphorylation enrichment [14] | phosphorylation enrichment [15] | phosphorylation enrichment [16]
TLQRMYGCDVG [HLA-B_Y123_S121R] | 0.454 | 0.851 | 0.493 | 0.501 | 0.5 | 0.554 | 0.535 | 0.816 | 1 | 0.857 | 0.545 | 0.771 | 0.665 | 0.568 | 1.14 | 0.542
GARGRYVMGGP [TNK1_Y277] | 0.548 | 0.512 | 0.435 | 0.379 | 0.481 | 0.421 | 0.504 | 0.376 | 0.457 | 0.7 | 0.546 | 0.419 | 0.389 | 0.332 | 0.555 | 0.405
MMVGAYSTLEG [ECPAS_Y470] | 1.44 | 0.777 | 11.7 | 1.07 | 0.538 | 0.704 | 0.735 | 0.57 | 0.557 | 0.765 | 3.09 | 0.676 | 0.545 | 0.607 | 0.839 | 0.743
ANNPLYKEATP [ITGB3_Y773_S778P] | 0.763 | 0.869 | 0.471 | 0.4 | 0.41 | 0.374 | 0.45 | 0.623 | 0.657 | 0.58 | 0.521 | 0.479 | 0.533 | 0.402 | 0.764 | 0.372
DDIPLYLKGGV [COX7A2_Y44_E40D] | 0.663 | 0.862 | 0.479 | 0.513 | 0.496 | 0.435 | 0.525 | 0.673 | 1.02 | 1.01 | 0.41 | 0.737 | 0.701 | 0.459 | 1.12 | 0.401
IHTEFYDGLFP [BCR_Y561_K558T] | 0.459 | 0.82 | 0.63 | 3.83 | 0.683 | 1.24 | 0.739 | 0.902 | 0.993 | 1.47 | 1.02 | 0.813 | 0.828 | 1.06 | 1.34 | 1.65
ERPGVHTNVVE [F11_Y608_Y608H] | 0.605 | 0.849 | 0.491 | 0.394 | 0.46 | 0.388 | 0.598 | 0.717 | 0.777 | 0.794 | 0.483 | 0.754 | 0.769 | 0.517 | 0.964 | 0.474
TLPAFYMENFS [GLB1_Y552_G554E] | 0.638 | 0.853 | 0.484 | 0.523 | 0.439 | 0.735 | 1.25 | 1.2 | 1.37 | 1.19 | 0.947 | 0.855 | 0.789 | 0.484 | 1.62 | 0.64
GRVFVYHLSEQ [ITGAE_Y551_R552H_YF] | 1.28 | 0.769 | 0.614 | 0.579 | 0.593 | 0.629 | 0.508 | 0.471 | 0.684 | 0.986 | 0.44 | 0.626 | 0.608 | 0.68 | 0.893 | 0.444
TPGPNYCPGFN [USH2A_Y463_R464C_YF] | 0.645 | 0.987 | 0.632 | 0.333 | 0.515 | 0.944 | 0.499 | 0.643 | 0.662 | 0.334 | 0.507 | 0.35 | 0.254 | 0.578 | 0.643 | 0.557
PNQRRYVYYYS [PTEN_Y174_S170N] | 3.49 | 1.17 | 2.17 | 1.29 | 3 | 1.06 | 1.07 | 0.841 | 1.37 | 2.88 | 3.81 | 1.61 | 1.57 | 1.86 | 2.29 | 0.817
KLIETYSSKNY [PLP1_Y50_F51S] | 0.703 | 0.912 | 0.522 | 0.536 | 0.584 | 0.543 | 0.684 | 0.591 | 0.653 | 0.649 | 0.539 | 0.619 | 0.759 | 0.429 | 0.838 | 0.44
QRRLVYFERGA [RYR1_Y245_G248R_YF] | 0.578 | 0.942 | 0.65 | 0.507 | 0.918 | 0.569 | 0.665 | 0.805 | 0.811 | 0.847 | 0.484 | 0.742 | 0.79 | 0.584 | 0.827 | 0.586
MEFLPYGSLRD [JAK2_Y934_YF] | 0.574 | 0.798 | 0.573 | 2.29 | 0.441 | 2.6 | 0.571 | 0.692 | 0.798 | 0.857 | 0.388 | 0.615 | 0.451 | 1.64 | 1.56 | 0.832
PATFTYDEFKK [COL8A2_Y648_YF] | 0.53 | 1.03 | 0.791 | 2.06 | 0.77 | 1.68 | 1.38 | 0.864 | 1.3 | 1.49 | 0.677 | 1.12 | 1.24 | 1.9 | 1.43 | 1.68
MEIHAYRKLLE [LMNA_Y376] | 0.572 | 0.869 | 0.471 | 0.414 | 0.443 | 0.397 | 0.479 | 0.672 | 0.814 | 0.804 | 0.383 | 0.57 | 0.67 | 0.429 | 0.97 | 0.527

The next lines start with results.

SH2 binding enrichment [1] | SH2 binding enrichment [2] | SH2 binding enrichment [3] | Sequence | phosphorylation enrichment [4] | phosphorylation enrichment [5] | phosphorylation enrichment [6] | phosphorylation enrichment [7] | phosphorylation enrichment [8] | phosphorylation enrichment [9] | phosphorylation enrichment [10] | phosphorylation enrichment [11] | phosphorylation enrichment [12] | phosphorylation enrichment [13] | phosphorylation enrichment [14] | phosphorylation enrichment [15] | phosphorylation enrichment [16]
0.773 | 0.773 | 0.727 | LNRAGYCDALE [MTUS1_Y151_C148R] | 0.424 | 0.686 | 0.591 | 0.684 | 0.749 | 1 | 1.06 | 0.484 | 0.994 | 0.988 | 0.537 | 1.12 | 0.571
0.75 | 0.843 | 0.551 | ACQGKYTPSGQ [ALDOA_Y343] | 0.46 | 0.406 | 0.463 | 0.414 | 0.693 | 0.851 | 0.598 | 0.378 | 0.734 | 0.402 | 0.479 | 0.742 | 0.531
0.745 | 0.871 | 0.466 | FQKDVYDIPPS [NEDD9_Y177_YF] | 2.69 | 0.384 | 2.62 | 0.681 | 0.662 | 0.629 | 1.01 | 7.04 | 0.559 | 2.01 | 2.59 | 0.681 | 0.502
0.609 | 0.709 | 0.525 | GGSSPYSRRLP [CDK13_Y351] | 0.358 | 0.393 | 0.393 | 0.327 | 0.504 | 0.4 | 0.549 | 0.414 | 0.39 | 0.314 | 0.403 | 0.501 | 0.317
1.7 | 1.86 | 1.54 | FPKAHYHWLVL [APTX_Y214_R213H_YF] | 0.444 | 2.69 | 0.396 | 0.448 | 0.716 | 0.864 | 0.819 | 0.619 | 1.87 | 0.491 | 0.447 | 1.29 | 0.645
0.595 | 0.788 | 0.555 | SKKSTYQALLD [GANC_Y43] | 0.433 | 0.416 | 0.423 | 0.394 | 0.382 | 0.907 | 0.563 | 0.403 | 0.405 | 0.369 | 0.447 | 0.541 | 0.305
0.75 | 1.03 | 0.835 | ACCLLYHGDVV [TUBA4A_Y319_R320H] | 0.632 | 2.49 | 5.43 | 0.551 | 0.69 | 0.797 | 0.918 | 0.739 | 1.45 | 0.539 | 0.507 | 0.887 | 1.88
0.7 | 0.879 | 0.347 | FSMGCYEISLE [HMGCL_Y198_G203E_YF] | 0.758 | 0.541 | 1.51 | 0.913 | 1.2 | 1.31 | 2.14 | 0.623 | 0.973 | 0.751 | 0.898 | 1.53 | 1.14
0.7 | 0.709 | 0.582 | LQKNIYSEELR [LMNA_Y211_F206L] | 1.49 | 1.79 | 0.722 | 1.82 | 0.445 | 0.508 | 1.32 | 4.38 | 1.37 | 1.02 | 1.92 | 1.39 | 0.61
0.756 | 0.653 | 0.46 | MVSLFYGTAIF [OR10C1_Y251_L255I] | 0.995 | 0.477 | 1.92 | 0.619 | 1.22 | 1.4 | 1.41 | 0.63 | 0.819 | 0.666 | 1.1 | 1.53 | 0.937
0.525 | 0.844 | 0.452 | TPRNTYKMTSV [MKI67_Y849_L854V] | 0.458 | 0.482 | 0.502 | 0.518 | 0.584 | 0.513 | 0.657 | 0.445 | 0.474 | 0.468 | 0.425 | 0.558 | 0.343
0.653 | 0.807 | 0.541 | DRLAVCIDRVR [LMNA_Y45_Y45C] | 0.477 | 0.467 | 0.436 | 0.605 | 0.76 | 0.904 | 0.942 | 0.394 | 0.682 | 0.518 | 0.46 | 1.15 | 0.457
0.836 | 0.762 | 0.387 | PLDGEYFSLQI [TP53_Y327_T329S] | 1.76 | 6.64 | 5.24 | 1.15 | 2.77 | 5.35 | 3.12 | 0.737 | 4.26 | 1.24 | 3.53 | 2.23 | 0.749
